Biological target: T1, DS-SILY20 (decorin mimic, SILY peptide-dermatan sulfate conjugate) (about 20 SILY peptides conjugated via BMPH to dermatan sulfate)
T1 chain: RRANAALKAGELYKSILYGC
Assay: solid-phase binding assay

B1: IFN-γ (protein)
chain: QDPYVKEAENLKKYFNAGHSDVADNGTLFLGILKNWKEESDRKIMQSQIVSFYFKLFKNFKDDQSIQKSVETIKEDMNVKFFNSNKKKRDDFEKLTNYSVTDLNVQRKAIHELIQVMAELSPAAKTGKRKRSQMLFRG
**Q.** B1 was tested. Which Kd did it give?
**A.** 0.0551 µM
